Measured values taken from patent publication US20170081400A1 (CEPHALON, published 2017).

T1: human TL1A extracellular domain with N-terminal HIS and FLAG tag (human) (UniProt O95150)
T1 sequence: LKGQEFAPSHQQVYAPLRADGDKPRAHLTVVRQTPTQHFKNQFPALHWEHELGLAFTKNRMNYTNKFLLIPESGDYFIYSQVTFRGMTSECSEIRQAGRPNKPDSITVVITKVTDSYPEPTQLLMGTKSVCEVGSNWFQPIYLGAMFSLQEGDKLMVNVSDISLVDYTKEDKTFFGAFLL

T2: human TL1A extracellular domain with N-terminal HIS and FLAG tag (human, UniProt O95150 72-251)
T2 construct: the whole entry is named
T2 sequence: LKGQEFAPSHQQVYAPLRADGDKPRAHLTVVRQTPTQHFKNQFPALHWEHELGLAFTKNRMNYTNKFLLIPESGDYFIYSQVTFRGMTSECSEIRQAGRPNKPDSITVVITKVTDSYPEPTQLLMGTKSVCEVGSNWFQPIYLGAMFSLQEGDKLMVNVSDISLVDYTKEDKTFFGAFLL


What was measured:
[1] = target: T1, human TL1A extracellular domain with N-terminal HIS and FLAG tag (human); assay: cell-based or functional assay
[2] = target: T2, human TL1A extracellular domain with …; assay: SPR Run 6, purified Ab captured on Protein A, TL1A 5 ug/mL, timepoint 44
Source text: (§1) 1.5. Antibody expression and antigen binding as determined by SPR. Using a CM5 sensor chip (GE Healthcare) Protein A (Pierce) was coupled to the chip surface using an amine coupling kit (GE Healthcare). Protein A was coupled on flow cell 1 and 2 (or alternatively 3 and 4) using a BIACORE® T200. […] The amount of supernatant or purified protein (as well as the concentration) injected during the capture stage varied between runs and is specified in the header of the Tables 3-11. At the end of injection of the supernatant or purified antibody the change in response units was measured. This value was reported as Capture Level in Tables 3-11. […] The response units were measured prior to the end of the dissociation phase. […] The sensorgrams were double referenced (flow cell 2 is subtracted from flow cell 1 and a buffer blank). As there were a large number of antibody variants to screen, these were screened across different runs (Tables 3-11). […] A summary of the conditions used in each run is below:
(§2) 2.1. […] In some experiment the antibodies were purified using Protein A chromatography (See 1.4) and purified antibodies were used in BIACORE® (GE Healthcare) experiments.

[3] = target: T2, human TL1A extracellular domain with …; assay: SPR Run 6, purified Ab captured on Protein A, TL1A 5 ug/mL, timepoint 170
Source text: as §1, §2

Antibody IC50, TL1A induced caspase potency assay in TF-1 cells [1] | Fold improvement over 320-179, TL1A induced caspase potency assay in TF-1 cells [1] | TL1A Binding Level (Early) [2] | TL1A Binding Level (Late) [3] | Binder
0.06 µg/mL | 1 fold | 114 RU | 103 RU | 320-443 (antibody, human IgG1, name in Kabat numbering, V domains shown, human IgG1, lambda) VH: QVQLVQSGAEVKKPGASVKVSCKASGYTFTSKDINWVRQAPGQGLEWMGWLNPNSGNTGYAQKFQGRVTMTADRSTSTAYMELSSLRSEDTAVYYCAREVPETAAFEYWGQGTLVTVSS VL: QSVLTQPPSVSGAPGQRVTISCTSSSSDIGAGLGVHWYQQLPGTAPKLLIEGYYNRPSGVPDRFSGSKSGTSASLTITGLLPEDEGDYYCQSYDGTLSALFGGGTKLTVLG
 |  | 61 RU | 54 RU | 320-479 (antibody, human IgG1, name in Kabat numbering, V domains shown, human IgG1, lambda) VH: QVQLVQSGAEVKKPGASVKVSCKASGYTFTSYDINWVRQAPGQGLEWMGWLNPNSGNTGYWQKFQGRVTMTADRSTSTAYMELSSLRSEDTAVYYCAREVPETAAFEYWGQGTLVTVSS VL: QSVLTQPPSVSGAPGQRVTISCTSSSSDIGAGLGVHWYQQLPGTAPKLLIEGYYNRPSGVPDRFSGSKSGTSASLTITGLLPEDEGDYYCQSYDGTLSALFGGGTKLTVLG
 |  | 128 RU | 118 RU | 320-476 (antibody, human IgG1, name in Kabat numbering, V domains shown, human IgG1, lambda) VH: QVQLVQSGAEVKKPGASVKVSCKASGKTFTSYDINWVRQAPGQGLEWMGWLNPNSGNTGYAQKFQGRVTMTADRSTSTAYMELSSLRSEDTAVYYCAREVPETAAFEYWGQGTLVTVSS VL: QSVLTQPPSVSGAPGQRVTISCTSSSSDIGAGLGVHWYQQLPGTAPKLLIEGYYNRPSGVPDRFSGSKSGTSASLTITGLLPEDEGDYYCQSYDGTLSALFGGGTKLTVLG
0.03 µg/mL | 2 fold | 116 RU | 106 RU | 320-445 (antibody, human IgG1, name in Kabat numbering, V domains shown, human IgG1, lambda) VH: QVQLVQSGAEVKKPGASVKVSCKASGYTFTSWDINWVRQAPGQGLEWMGWLNPNSGNTGYAQKFQGRVTMTADRSTSTAYMELSSLRSEDTAVYYCAREVPETAAFEYWGQGTLVTVSS VL: QSVLTQPPSVSGAPGQRVTISCTSSSSDIGAGLGVHWYQQLPGTAPKLLIEGYYNRPSGVPDRFSGSKSGTSASLTITGLLPEDEGDYYCQSYDGTLSALFGGGTKLTVLG
0.02 µg/mL | 3 fold | 102 RU | 101 RU | 320-463 (antibody, human IgG1, name in Kabat numbering, V domains shown, human IgG1, lambda) VH: QVQLVQSGAEVKKPGASVKVSCKASGYTFTSYDIAWVRQAPGQGLEWMGWLNPNSGNTGYAQKFQGRVTMTADRSTSTAYMELSSLRSEDTAVYYCAREVPETAAFEYWGQGTLVTVSS VL: QSVLTQPPSVSGAPGQRVTISCTSSSSDIGAGLGVHWYQQLPGTAPKLLIEGYYNRPSGVPDRFSGSKSGTSASLTITGLLPEDEGDYYCQSYDGTLSALFGGGTKLTVLG
 |  | 44 RU | 24 RU | 320-467 (antibody, human IgG1, name in Kabat numbering, V domains shown, human IgG1, lambda) VH: QVQLVQSGAEVKKPGASVKVSCKASGYTFTSYDIHWVRQAPGQGLEWMGWLNPNSGNTGYAQKFQGRVTMTADRSTSTAYMELSSLRSEDTAVYYCAREVPETAAFEYWGQGTLVTVSS VL: QSVLTQPPSVSGAPGQRVTISCTSSSSDIGAGLGVHWYQQLPGTAPKLLIEGYYNRPSGVPDRFSGSKSGTSASLTITGLLPEDEGDYYCQSYDGTLSALFGGGTKLTVLG
 |  | 69 RU | 55 RU | 320-473 (antibody, human IgG1, name in Kabat numbering, V domains shown, human IgG1, lambda) VH: QVQLVQSGAEVKKPGASVKVSCKASGYTFTSYDINWVRQAPGQGLEWMGWLNPNSGNTGYAQKFQGRVTMTADRSTSTAYMELSSLRSEDTAVYYCAREVPETAAFEYWGQGTLVTVSS VL: QSVLTQPPSVSGAPGQRVTISCTSSSSDIGAGLGVHWYQQLPGTAPKLLIEGYYNRPSGVPDRFSGSKSGTSASLTITGLLPEDEGDYYCQSDDGTLSALFGGGTKLTVLG
 |  | 85 RU | 77 RU | 320-478 (antibody, human IgG1, name in Kabat numbering, V domains shown, human IgG1, lambda) VH: QVQLVQSGAEVKKPGASVKVSCKASGYTFTSYDINWVRQAPGQGLEWMGWLNPNSGNTGYLQKFQGRVTMTADRSTSTAYMELSSLRSEDTAVYYCAREVPETAAFEYWGQGTLVTVSS VL: QSVLTQPPSVSGAPGQRVTISCTSSSSDIGAGLGVHWYQQLPGTAPKLLIEGYYNRPSGVPDRFSGSKSGTSASLTITGLLPEDEGDYYCQSYDGTLSALFGGGTKLTVLG
 |  | 69 RU | 61 RU | 320-469 (antibody, human IgG1, name in Kabat numbering, V domains shown, human IgG1, lambda) VH: QVQLVQSGAEVKKPGASVKVSCKASGYTFTSYDILWVRQAPGQGLEWMGWLNPNSGNTGYAQKFQGRVTMTADRSTSTAYMELSSLRSEDTAVYYCAREVPETAAFEYWGQGTLVTVSS VL: QSVLTQPPSVSGAPGQRVTISCTSSSSDIGAGLGVHWYQQLPGTAPKLLIEGYYNRPSGVPDRFSGSKSGTSASLTITGLLPEDEGDYYCQSYDGTLSALFGGGTKLTVLG
0.03 µg/mL | 1 fold | 148 RU | 136 RU | 320-477 (antibody, human IgG1, name in Kabat numbering, V domains shown, human IgG1, lambda) VH: QVQLVQSGAEVKKPGASVKVSCKASGYTFTHYDINWVRQAPGQGLEWMGWLNPNSGNTGYAQKFQGRVTMTADRSTSTAYMELSSLRSEDTAVYYCAREVPETAAFEYWGQGTLVTVSS VL: QSVLTQPPSVSGAPGQRVTISCTSSSSDIGAGLGVHWYQQLPGTAPKLLIEGYYNRPSGVPDRFSGSKSGTSASLTITGLLPEDEGDYYCQSYDGTLSALFGGGTKLTVLG
 |  | 85 RU | 76 RU | 320-491 (antibody, human IgG1, name in Kabat numbering, V domains shown, human IgG1, lambda) VH: QVQLVQSGAEVKKPGASVKVSCKASGYTFTSYDINWVRQAPGQGLEWMGWSNPNSGNTGYAQKFQGRVTMTADRSTSTAYMELSSLRSEDTAVYYCAREVPETAAFEYWGQGTLVTVSS VL: QSVLTQPPSVSGAPGQRVTISCTSSSSDIGAGLGVHWYQQLPGTAPKLLIEGYYNRPSGVPDRFSGSKSGTSASLTITGLLPEDEGDYYCQSYDGTLSALFGGGTKLTVLG
0.03 µg/mL | 2 fold | 130 RU | 124 RU | 320-464 (antibody, human IgG1, name in Kabat numbering, V domains shown, human IgG1, lambda) VH: QVQLVQSGAEVKKPGASVKVSCKASGYTFTSYDISWVRQAPGQGLEWMGWLNPNSGNTGYAQKFQGRVTMTADRSTSTAYMELSSLRSEDTAVYYCAREVPETAAFEYWGQGTLVTVSS VL: QSVLTQPPSVSGAPGQRVTISCTSSSSDIGAGLGVHWYQQLPGTAPKLLIEGYYNRPSGVPDRFSGSKSGTSASLTITGLLPEDEGDYYCQSYDGTLSALFGGGTKLTVLG
 |  | 93 RU | 86 RU | 320-466 (antibody, human IgG1, name in Kabat numbering, V domains shown, human IgG1, lambda) VH: QVQLVQSGAEVKKPGASVKVSCKASGYTFTSYDIDWVRQAPGQGLEWMGWLNPNSGNTGYAQKFQGRVTMTADRSTSTAYMELSSLRSEDTAVYYCAREVPETAAFEYWGQGTLVTVSS VL: QSVLTQPPSVSGAPGQRVTISCTSSSSDIGAGLGVHWYQQLPGTAPKLLIEGYYNRPSGVPDRFSGSKSGTSASLTITGLLPEDEGDYYCQSYDGTLSALFGGGTKLTVLG
 |  | 14 RU | 8 RU | 320-490 (antibody, human IgG1, name in Kabat numbering, V domains shown, human IgG1, lambda) VH: QVQLVQSGAEVKKPGASVKVSCKASGYTFTSYDINWVRQAPGQGLEWMGYLNPNSGNTGYAQKFQGRVTMTADRSTSTAYMELSSLRSEDTAVYYCAREVPETAAFEYWGQGTLVTVSS VL: QSVLTQPPSVSGAPGQRVTISCTSSSSDIGAGLGVHWYQQLPGTAPKLLIEGYYNRPSGVPDRFSGSKSGTSASLTITGLLPEDEGDYYCQSYDGTLSALFGGGTKLTVLG
 |  | 23 RU | 10 RU | 320-472 (antibody, human IgG1, name in Kabat numbering, V domains shown, human IgG1, lambda) VH: QVQLVQSGAEVKKPGASVKVSCKASGYTFTSYDINWVRQAPGQGLEWMGWLNPNSGNTGYAQKFQGRVTMTADRSTSTAYMELSSLRSEDTAVYYCAREVPETAAFEYWGQGTLVTVSS VL: QSVLTQPPSVSGAPGQRVTISCTSSSSDIGAGLGVHWYQQLPGTAPKLLIEGYYNRPSGVPDRFSGSKSGTSASLTITGLLPEDEGDYYCQLYDGTLSALFGGGTKLTVLG
 |  | 79 RU | 73 RU | 320-480 (antibody, human IgG1, name in Kabat numbering, V domains shown, human IgG1, lambda) VH: QVQLVQSGAEVKKPGASVKVSCKASGYTFTSYDINWVRQAPGQGLEWMGWLNPNSGNTGYYQKFQGRVTMTADRSTSTAYMELSSLRSEDTAVYYCAREVPETAAFEYWGQGTLVTVSS VL: QSVLTQPPSVSGAPGQRVTISCTSSSSDIGAGLGVHWYQQLPGTAPKLLIEGYYNRPSGVPDRFSGSKSGTSASLTITGLLPEDEGDYYCQSYDGTLSALFGGGTKLTVLG
